Reference: patent EP4803550A1 (Yantai Patronus Biotech Co., Ltd., dated 2026)

B1: RD012-1 (fHBP V3 domain 1-fHBP V1 domain 2-(G)-fHBP V1 domain 1-fHBP V2 domain 2-(GSG)2-4T-His) (other)
chain: SSGSGSGGGGVAADIGTGLADALTAPLDHKDKGLKSLTLEDSISQNGTLTLSAQGAEKTFKVGDKDNSLNTGKLKNDKISRFDFVQKIEVDGQTITLASGEFQIYKQDHSAVVALQIEKINNPDKIDSLINQRSFLVSGLGGEHTSFDKLPKDVMATYRGTAFGSDDAGGKLTYTIDFAAKQGHGKIEHLKSPELNVDLAVAYIKPDEKHHAVISGSVLYNQDEKGSYSLGIFGEKAQEVAGSAEVETANGIHHIGLAAKQGSSGGGGSGGGGVTADIGTGLADALTAPLDHKDKGLKSLTLEDSISQNGTLTLSAQGAEKTYGNGDSLNTGKLKNDKVSRFDFIRQIEVDGQLITLESGEFQVYKQSHSALTALQTEQEQDPEHSEKMVAKRRFRIGDIAGEHTAFNQLPDGKAEYHGKAFSSDDAGGKLTYTIDFAAKQGHGKIEHLKTPEQNVELAAAELKADEKSHAVILGDTRYGSEEKGTYHLALFGDRAQEIAGSATVKIGEKVHEIGIAGKQGSGGSGAHIVMVDAYKPTKHHHHHH
notes: Expressed in E. coli BL21(DE3), purified by His-trap and SEC; also called RD012-1 fusion protein; MenB antigen
B2: RD012-2 (fHBP V3 domain 1-fHBP V1 domain 2-fHBP V1 domain 1T1-fHBP V2 domain 2-(GSG)2-4T-His) (other)
chain: SSGSGSGGGGVAADIGTGLADALTAPLDHKDKGLKSLTLEDSISQNGTLTLSAQGAEKTFKVGDKDNSLNTGKLKNDKISRFDFVQKIEVDGQTITLASGEFQIYKQDHSAVVALQIEKINNPDKIDSLINQRSFLVSGLGGEHTSFDKLPKDVMATYRGTAFGSDDAGGKLTYTIDFAAKQGHGKIEHLKSPELNVDLAVAYIKPDEKHHAVISGSVLYNQDEKGSYSLGIFGEKAQEVAGSAEVETANGIHHIGLAAKQGSGGGGVTADIGTGLADALTAPLDHKDKGLKSLTLEDSISQNGTLTLSAQGAEKTYGNGDSLNTGKLKNDKVSRFDFIRQIEVDGQLITLESGEFQVYKQSHSALTALQTEQEQDPEHSEKMVAKRRFRIGDIAGEHTAFNQLPDGKAEYHGKAFSSDDAGGKLTYTIDFAAKQGHGKIEHLKTPEQNVELAAAELKADEKSHAVILGDTRYGSEEKGTYHLALFGDRAQEIAGSATVKIGEKVHEIGIAGKQGSGGSGAHIVMVDAYKPTKHHHHHH
notes: Expressed in E. coli BL21(DE3), purified by His-trap and SEC; also called RD012-2 fusion protein; MenB antigen

Molecular target: T1, NPM-4C (binding peptide 2-NPM fusion protein)
T1 construct: Self-assembling nanoparticle protein expressed in E. coli; also called particle protein component; VLP carrier NPM-4C
Assay: covalent binding reaction (4T/4C) with NPM-4C at 22 °C for 24 h, SEC purification, SDS-PAGE

Binder	binding result
B1	binds
B2	binds
